How the values were obtained:
[1] = target: T1, SARS-CoV-2 spike receptor-binding domain (RBD) (SARS-CoV-2, UniProt P0DTC2); experiment: BLI; conditions: both partners purified
[2] = target: T1, SARS-CoV-2 spike receptor-binding …; experiment: ELISA; conditions: both partners purified

B1: CTC-445.2t (designed binder)
chain: SAEIDLGKGDFREIRASEDAREAAEALAEAARAMKEALEIIREIAEKLRDSSRASEAAKRIAKAIRKAADAIAEAAKIAARAAKDGDAARNAENAARKAKEFAEEQAKLADMYAELAKNGDKSSVLEQLKTFADKAFHEMEDRFYQAALAVFEAAEAAAGGGGSGGSGSGGSGGGSSAEIDLGKGDFREIRASEDAREAAEALAEAARAMKEALEIIREIAEKLRDSSRASEAAKRIAKAIRKAADAIAEAAKIAARAAKDGDAARNAENAARKAKEFAEEQAKLADMYAELAKNGDKSSVLEQLKTFADKAFHEMEDRFYQAALAVFEAAEAAAGGGGSGGSGSGGSGGGSSAEIDLGKGDFREIRASEDAREAAEALAEAARAMKEALEIIREIAEKLRDSSRASEAAKRIAKAIRKAADAIAEAAKIAARAAKDGDAARNAENAARKAKEFAEEQAKLADMYAELAKNGDKSSVLEQLKTFADKAFHEMEDRFYQAALAVFEAAEAAAG
For B1, the Kd [1] was roughly 0.27 nM and the IC50 [2] was roughly 0.01 nM.

From publication PMC7920261 (Science (New York, N.y.), 2020)
